First the molecules themselves.
B1: Vang-like protein 1 (Homo sapiens), Q8TAA9 (parent)
chain: MDTESTYSGYSYYSSHSKKSHRQGERTRERHKSPRNKDGRGSEKSVTIQPPTGEPLLGNDSTRTEEVQDDNWGETTTAITGTSEHSISQEDIARISKDMEDSVGLDCKRYLGLTVASFLGLLVFLTPIAFILLPPILWRDELEPCGTICEGLFISMAFKLLILLIGTWALFFRKRRADMPRVFVFRALLLVLIFLFVVSYWLFYGVRILDSRDRNYQGIVQYAVSLVDALLFIHYLAIVLLELRQLQPMFTLQVVRSTDGESRFYSLGHLSIQRAALVVLENYYKDFTIYNPNLLTASKFRAAKHMAGLKVYNVDGPSNNATGQSRAMIAAAARRRDSSHNELYYEEAEHERRVKKRKARLVVAVEEAFIHIQRLQAEEQQKAPGEVMDPREAAQAIFPSMARALQKYLRITRQQNYHSMESILQHLAFCITNGMTPKAFLERYLSAGPTLQYDKDRWLSTQWRLVSDEAVTNGLRDGIVFVLKCLDFSLVVNVKKIPFIILSEEFIDPKSHKFVLRLQSETSV
partner: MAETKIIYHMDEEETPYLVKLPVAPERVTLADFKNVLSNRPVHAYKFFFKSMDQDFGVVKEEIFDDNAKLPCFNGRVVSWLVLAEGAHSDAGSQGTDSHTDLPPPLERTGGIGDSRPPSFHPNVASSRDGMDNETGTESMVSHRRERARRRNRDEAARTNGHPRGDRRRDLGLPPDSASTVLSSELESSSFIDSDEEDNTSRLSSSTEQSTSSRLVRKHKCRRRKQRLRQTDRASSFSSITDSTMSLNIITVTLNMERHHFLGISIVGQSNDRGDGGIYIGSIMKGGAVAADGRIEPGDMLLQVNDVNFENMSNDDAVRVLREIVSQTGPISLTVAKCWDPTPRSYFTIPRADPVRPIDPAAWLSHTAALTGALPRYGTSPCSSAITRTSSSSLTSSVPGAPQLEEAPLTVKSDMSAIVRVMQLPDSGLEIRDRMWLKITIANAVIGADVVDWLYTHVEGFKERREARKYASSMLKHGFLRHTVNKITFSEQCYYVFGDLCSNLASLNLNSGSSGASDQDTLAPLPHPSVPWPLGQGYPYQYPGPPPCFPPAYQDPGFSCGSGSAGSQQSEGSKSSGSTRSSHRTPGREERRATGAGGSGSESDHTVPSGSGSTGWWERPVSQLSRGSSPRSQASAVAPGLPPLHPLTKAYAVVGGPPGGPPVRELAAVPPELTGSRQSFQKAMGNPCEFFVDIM

Experimental findings from IntAct's records for PubMed 17409324 are described below.

The variants in this test derive from B1. The following applies: with dvl1_mouse Dvl1, P51141.
On to MDTESTYSGYSYYSSHSKKSHRQGERTRERHKSPRNKDGRGSEKSVTIQPPTGEPLLGNDSTRTEEVQDDNWGETTTAITGTSEHSISQEDIARISKDMEDSVGLDCKRYLGLTVASFLGLLVFLTPIAFILLPPILWRDELEPCGTICEGLFISMAFKLLILLIGTWALFFRKRRADMPRVFVFRALLLVLIFLFVVSYWLFYGVRILDSRDRNYQGIVQYAVSLVDALLFIHYLAIVLLELRQLQPMFTLQVVRSTEGESRFYSLGHLSIQRAALVVLENYYKDFTIYNPNLLTASKFRAAKHMAGLKVYNVDGPSNNATGQSRAMIAAAARRRDSSHNELYYEEAEHERRVKKRKARLVVAVEEAFIHIQRLQAEEQQKAPGEVMDPREAAQAIFPSMARALQKYLRITRQQNYHSMESILQHLAFCITNGMTPKAFLERYLSAGPTLQYDKDRWLSTQWRLVSDEAVTNGLRDGIVFVLKCLDFSLVVNVKKIPFIILSEEFIDPKSHKFVLRLQSETSV [D259E], for which the “effect of a mutation on the interaction” value was “disrupting interaction strength”. Consider MDTESTYSGYSYYSSHSKKSHRQGERTRERHKSPRNKDGRGSEKSVTIQPPTGEPLLGNDSTRTEEVQDDNWGETTTAITGTSEHSISQEDIARISKDMEDSVGLDCKRYLGLTVASFLGLLVFLTPIAFILLPPILWRDELEPCGTICEGLFISMAFKLLILLIGTWALFFRKRRADMPRVFVFRALLLVLIFLFVVSYWLFYGVRILDSRDRNYQGIVQYAVSLVDALLFIHYLAIVLLELRQLQPMFTLQVVRSTDGESRFYSLGHLSIQRAALVVLENYYKDFTIYNPNLLTASKFRAAKHMAGLKVYNVDGPSNNATGQSRATIAAAARRRDSSHNELYYEEAEHERRVKKRKARLVVAVEEAFIHIQRLQAEEQQKAPGEVMDPREAAQAIFPSMARALQKYLRITRQQNYHSMESILQHLAFCITNGMTPKAFLERYLSAGPTLQYDKDRWLSTQWRLVSDEAVTNGLRDGIVFVLKCLDFSLVVNVKKIPFIILSEEFIDPKSHKFVLRLQSETSV [M328T], for which the “effect of a mutation on the interaction” value is recorded as “with no effect”. As for MDTESTYSGYSYYSSHSKKSHRQGERTRERHKSPRNKDGRGSEKSVTIQPPTGEPLLGNDSTRTEEVQDDNWGETTTAITGTSEHSISQEDIARISKDMEDSVGLDCKRYLGLTVASFLGLLVFLTPIAFILLPPILWRDELEPCGTICEGLFISMAFKLLILLIGTWALFFRKRRADMPRVFVFRALLLVLIFLFVVSYWLFYGVRILDSRDRNYQGIVQYAVSLVDALLFIHYLAIVLLELRQLQPMFTLQVVRSTDGESRFYSLGHLSIQQAALVVLENYYKDFTIYNPNLLTASKFRAAKHMAGLKVYNVDGPSNNATGQSRAMIAAAARRRDSSHNELYYEEAEHERRVKKRKARLVVAVEEAFIHIQRLQAEEQQKAPGEVMDPREAAQAIFPSMARALQKYLRITRQQNYHSMESILQHLAFCITNGMTPKAFLERYLSAGPTLQYDKDRWLSTQWRLVSDEAVTNGLRDGIVFVLKCLDFSLVVNVKKIPFIILSEEFIDPKSHKFVLRLQSETSV [R274Q], the “effect of a mutation on the interaction” value is reported as “with no effect”.

Take MDTESTYSGYSYYSSHSKKSHRQGERTRERHKSPRNKDGRGSEKSVTIQPPTGEPLLGNDSTRTEEVQDDNWGETTTAITGTSEHSISQEDIARISKDMEDSVGLDCKRYLGLTVASFLGLLVFLTPIAFILLPPILWRDELEPCGTICEGLFISMAFKLLILLIGTWALFFRKRRADMPRVFVFRALLLVLIFLFVVSYWLFYGVRILDSRDRNYQGIVQYAVSLVDALLFIHYLAIILLELRQLQPMFTLQVVRSTDGESRFYSLGHLSIQRAALVVLENYYKDFTIYNPNLLTASKFRAAKHMAGLKVYNVDGPSNNATGQSRAMIAAAARRRDSSHNELYYEEAEHERRVKKRKARLVVAVEEAFIHIQRLQAEEQQKAPGEVMDPREAAQAIFPSMARALQKYLRITRQQNYHSMESILQHLAFCITNGMTPKAFLERYLSAGPTLQYDKDRWLSTQWRLVSDEAVTNGLRDGIVFVLKCLDFSLVVNVKKIPFIILSEEFIDPKSHKFVLRLQSETSV [V239I]: the “effect of a mutation on the interaction” value was “disrupting interaction strength”. Take MDTESTYSGYSYYSSHSKKSHRQGERTRERHKSPRNKDGRGSEKSVTIQPPTGEPLLGNDSTRTEEVQDDNWGETTTAITGTSEHSISQEDIARISKDMEDSVGLDCKRYLGLTVASFLGLLVFLTPIAFILLPPILWRDELEPCGTICEGLFISMAFKLLILLIGTWALFFRKRRADMPRVFVFRALLLVLIFLFVVSYWLFYGVRILDSRDRNYQGIVQYAVSLVDALLFIHYLAIVLLELRQLQPMFTLQVVRSTDGESRFYSLGHLSIQRAALVVLENYYKDFTIYNPNLLTASKFRAAKHMAGLKVYNVDGPSNNATGQSRAMIAAAARRRDSSHNELYYEEAEHERRVKKRKARLVVAVEEAFIHIQRLQAEEQQKAPGEVMDPREAAQAIFPSMARALQKYLRITRQQNYHSMESILQHLAFCITNGMTPKAFLERYLSAGPTLQYDKDRWLSTQWRLVNDEAVTNGLRDGIVFVLKCLDFSLVVNVKKIPFIILSEEFIDPKSHKFVLRLQSETSV [S467N]: the “effect of a mutation on the interaction” value is reported as “disrupting interaction strength”.
